The record followed here is the supplement of paper PMC9112550, “Optimization of the antimicrobial peptide Bac7 by deep mutational scanning” (BMC Biology, 2022).

In this series the test system is Escherichia coli TOP10. Put plainly: shrunken log2 fold change of peptide-encoding DNA abundance (4.5 h post-induction vs induction); higher = less antimicrobial activity (less host growth inhibition). The note with it: time post-induction: 4.5 h; library: site-saturation at positions 5, 18, 19, 20.
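Note: peptides expressed intracellularly from a pBAD plasmid library in pooled LB shake-flask culture, induced with 0.3% L-arabinose, DNA abundance read by NGS, three biological replicates, DESeq2 with apeglm shrinkage.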

As to RRIRHRPPRLPRPRPRPAGFPRP, the “shrunken log2 fold change” value is -0.207.
The value for RRIRHRPPRLPRPRPRPMLWPRP was 0.0253; that for RRIRVRPPRLPRPRPRPGVCPRP was 0.186; that for RRIRDRPPRLPRPRPRPFYIPRP was -0.796.
The value for RRIRERPPRLPRPRPRPKGVPRP was 0.723; that for RRIRRRPPRLPRPRPRPHVPPRP was -0.148.
With RRIRWRPPRLPRPRPRPEYAPRP the figure was 0.467; with RRIRQRPPRLPRPRPRPFIDPRP, -0.0223; with RRIRERPPRLPRPRPRPWVDPRP, -0.665.
Take RRIRSRPPRLPRPRPRPNDPPRP: the “shrunken log2 fold change” value was -0.619.
Regarding RRIRHRPPRLPRPRPRPSWFPRP, the “shrunken log2 fold change” value was -0.408.
With RRIRSRPPRLPRPRPRPGSHPRP the figure was -0.104.
RRIRTRPPRLPRPRPRPAHCPRP: the “shrunken log2 fold change” value is -0.168.
As for RRIRQRPPRLPRPRPRPYDKPRP, the “shrunken log2 fold change” value was -0.119.
The value for RRIRNRPPRLPRPRPRPLGVPRP was 0.129.
As to RRIRARPPRLPRPRPRPANDPRP, the “shrunken log2 fold change” value is 0.0448.
With RRIRVRPPRLPRPRPRPRAHPRP the figure was 0.00164.
The value for RRIRERPPRLPRPRPRPESPPRP was 0.0699; that for RRIRQRPPRLPRPRPRPKSRPRP was 0.0336; that for RRIRQRPPRLPRPRPRPYAWPRP was -0.0963.
With RRIRCRPPRLPRPRPRPWPCPRP the figure was 1.63; with RRIRHRPPRLPRPRPRPMMIPRP, 0.00431.
RRIRFRPPRLPRPRPRPNGDPRP: the “shrunken log2 fold change” value is -0.131.
As to RRIRGRPPRLPRPRPRPQVWPRP, the “shrunken log2 fold change” value is 0.846.
As to RRIRQRPPRLPRPRPRPYMAPRP, the “shrunken log2 fold change” value was -0.274.
With RRIRCRPPRLPRPRPRPGQQPRP the figure was 0.0269.
As for RRIRVRPPRLPRPRPRPFHMPRP, the “shrunken log2 fold change” value is -0.54.
The value for RRIRLRPPRLPRPRPRPEKHPRP was -0.262.
With RRIRFRPPRLPRPRPRPKLPPRP the figure was 0.404; with RRIRCRPPRLPRPRPRPLFFPRP, -0.273.
As for RRIRYRPPRLPRPRPRPWRFPRP, the “shrunken log2 fold change” value was -0.00218.
With RRIRARPPRLPRPRPRPWYHPRP the figure was -0.0138; with RRIRRRPPRLPRPRPRPWQLPRP, 0.144; with RRIRRRPPRLPRPRPRPMSMPRP, -0.17.
RRIRFRPPRLPRPRPRPNMRPRP: the “shrunken log2 fold change” value was 0.386.
Regarding RRIRVRPPRLPRPRPRPDDYPRP, the “shrunken log2 fold change” value is -0.272.
Regarding RRIRGRPPRLPRPRPRPPMDPRP, the “shrunken log2 fold change” value was found to be 0.597.
The value for RRIRARPPRLPRPRPRPLYPPRP was -0.221.
RRIRQRPPRLPRPRPRPQSNPRP: the “shrunken log2 fold change” value was -0.00933.
The value for RRIRPRPPRLPRPRPRPCYTPRP was -0.531; that for RRIRGRPPRLPRPRPRPIWAPRP was 0.267; that for RRIRWRPPRLPRPRPRPYTIPRP was -0.606.
With RRIRLRPPRLPRPRPRPIPGPRP the figure was 0.00419.
With RRIRSRPPRLPRPRPRPYNMPRP the figure was -0.817; with RRIRWRPPRLPRPRPRPCTLPRP, -0.842; with RRIRWRPPRLPRPRPRPAVEPRP, 0.497.
Consider RRIRKRPPRLPRPRPRPHLFPRP, for which the “shrunken log2 fold change” value amounted to 0.205.
As to RRIRNRPPRLPRPRPRPYNGPRP, the “shrunken log2 fold change” value was 0.0167.
As to RRIRERPPRLPRPRPRPNLYPRP, the “shrunken log2 fold change” value was -0.022.
In the case of RRIRTRPPRLPRPRPRPAVHPRP, the “shrunken log2 fold change” value is -0.0614.
In the case of RRIRRRPPRLPRPRPRPWRPPRP, the “shrunken log2 fold change” value was 0.734.
With RRIRNRPPRLPRPRPRPVIKPRP the figure was -0.375; with RRIRERPPRLPRPRPRPIDCPRP, -0.409.
The value for RRIRLRPPRLPRPRPRPHSLPRP was 0.0368; that for RRIRLRPPRLPRPRPRPPEPPRP was 0.232.
With RRIRGRPPRLPRPRPRPSERPRP the figure was 0.278.
In the case of RRIRWRPPRLPRPRPRPDRQPRP, the “shrunken log2 fold change” value was -0.018.
For RRIRRRPPRLPRPRPRPSYAPRP, the “shrunken log2 fold change” value is 0.0616.
Regarding RRIRHRPPRLPRPRPRPPYQPRP, the “shrunken log2 fold change” value is -0.028.
For the sequence RRIRQRPPRLPRPRPRPSLQPRP, the “shrunken log2 fold change” value is -0.154.
The value for RRIRTRPPRLPRPRPRPTCMPRP was -0.262; that for RRIRPRPPRLPRPRPRPYKWPRP was -0.296.
The value for RRIRHRPPRLPRPRPRPEWRPRP was -0.0322.
RRIRGRPPRLPRPRPRPPEVPRP: the “shrunken log2 fold change” value worked out at 1.02.
Turning to RRIRKRPPRLPRPRPRPVNKPRP, the “shrunken log2 fold change” value is 0.22.
With RRIRCRPPRLPRPRPRPLPSPRP the figure was 0.214.
Turning to RRIRARPPRLPRPRPRPRNGPRP, the “shrunken log2 fold change” value was 0.566.
The value for RRIRFRPPRLPRPRPRPCHTPRP was -0.17.
Regarding RRIRVRPPRLPRPRPRPLMVPRP, the “shrunken log2 fold change” value is -0.443.
With RRIRIRPPRLPRPRPRPFRMPRP the figure was -0.91.
Regarding RRIRTRPPRLPRPRPRPKSTPRP, the “shrunken log2 fold change” value came out at 0.0437.
The value for RRIRLRPPRLPRPRPRPWCDPRP was -0.437; that for RRIRIRPPRLPRPRPRPISRPRP was -0.0044; that for RRIRNRPPRLPRPRPRPKGWPRP was 0.439.
With RRIRQRPPRLPRPRPRPCQYPRP the figure was -0.00191; with RRIRWRPPRLPRPRPRPAMIPRP, -0.0987; with RRIRCRPPRLPRPRPRPDIYPRP, -0.174.
The value for RRIRGRPPRLPRPRPRPVIPPRP was 0.000617.
Regarding RRIRRRPPRLPRPRPRPYLMPRP, the “shrunken log2 fold change” value is -0.146.
On to RRIRGRPPRLPRPRPRPTWSPRP, for which the “shrunken log2 fold change” value is 0.977.
The value for RRIRYRPPRLPRPRPRPNRMPRP was -0.22; that for RRIRKRPPRLPRPRPRPNFSPRP was -0.084.
Regarding RRIRLRPPRLPRPRPRPNQFPRP, the “shrunken log2 fold change” value is 0.0261.
With RRIRVRPPRLPRPRPRPERKPRP the figure was 0.111; with RRIRFRPPRLPRPRPRPKIDPRP, 0.00783.
With RRIRRRPPRLPRPRPRPNDIPRP the figure was -0.349.
RRIRVRPPRLPRPRPRPTGNPRP: the “shrunken log2 fold change” value turned out to be 2.77.
The value for RRIRHRPPRLPRPRPRPGEYPRP was -0.219.
Take RRIRGRPPRLPRPRPRPPHPPRP: the “shrunken log2 fold change” value came out at 0.643.
In the case of RRIRWRPPRLPRPRPRPDDIPRP, the “shrunken log2 fold change” value is -0.163.
RRIRGRPPRLPRPRPRPFRYPRP: the “shrunken log2 fold change” value was 0.0984.
The value for RRIRGRPPRLPRPRPRPDKQPRP was 0.0252.
With RRIRSRPPRLPRPRPRPYFCPRP the figure was -0.354; with RRIRMRPPRLPRPRPRPFNNPRP, -0.296.
For RRIRTRPPRLPRPRPRPDPIPRP, the “shrunken log2 fold change” value is 0.03.
With RRIRHRPPRLPRPRPRPWSAPRP the figure was -0.547; with RRIRERPPRLPRPRPRPIPQPRP, 0.13.
RRIRYRPPRLPRPRPRPSYSPRP: the “shrunken log2 fold change” value is -0.438.
On to RRIRTRPPRLPRPRPRPCLVPRP, for which the “shrunken log2 fold change” value is -0.175.
For RRIRGRPPRLPRPRPRPLLPPRP, the “shrunken log2 fold change” value was found to be 0.895.
As for RRIRTRPPRLPRPRPRPRANPRP, the “shrunken log2 fold change” value was determined as 0.177.
The value for RRIRARPPRLPRPRPRPLFIPRP was -0.331.
For the sequence RRIRWRPPRLPRPRPRPKWWPRP, the “shrunken log2 fold change” value amounted to 0.266.
With RRIRIRPPRLPRPRPRPDDKPRP the figure was -0.266; with RRIRQRPPRLPRPRPRPVANPRP, 0.124; with RRIRVRPPRLPRPRPRPERWPRP, 0.615.
On to RRIRGRPPRLPRPRPRPQWLPRP, for which the “shrunken log2 fold change” value amounted to 0.136.
The value for RRIRNRPPRLPRPRPRPHHGPRP was -0.00683.
For the sequence RRIRMRPPRLPRPRPRPAVSPRP, the “shrunken log2 fold change” value was determined as 0.494.
The value for RRIRSRPPRLPRPRPRPDYCPRP was -0.284; that for RRIRSRPPRLPRPRPRPHLIPRP was -0.303; that for RRIRKRPPRLPRPRPRPFMQPRP was -0.0285.
For RRIRPRPPRLPRPRPRPYWNPRP, the “shrunken log2 fold change” value is -0.151.
Take RRIRFRPPRLPRPRPRPTTNPRP: the “shrunken log2 fold change” value is -0.2.
RRIRIRPPRLPRPRPRPHNTPRP: the “shrunken log2 fold change” value was -0.961.
With RRIRVRPPRLPRPRPRPYWNPRP the figure was -0.574.
In the case of RRIRRRPPRLPRPRPRPGRDPRP, the “shrunken log2 fold change” value worked out at 0.717.
With RRIRDRPPRLPRPRPRPCVLPRP, the “shrunken log2 fold change” value is 0.0171.
With RRIRERPPRLPRPRPRPDGGPRP the figure was 0.0135; with RRIRYRPPRLPRPRPRPDSNPRP, -2.93; with RRIRPRPPRLPRPRPRPRYSPRP, -0.354.
Consider RRIRERPPRLPRPRPRPGHLPRP, for which the “shrunken log2 fold change” value was -0.0138.
The value for RRIRIRPPRLPRPRPRPGNPPRP was -0.366; that for RRIRPRPPRLPRPRPRPGATPRP was 0.54; that for RRIRVRPPRLPRPRPRPYHSPRP was -1.02.
